What was measured:
Mouse Id1: Histidine [1] = target: T1, Mouse Id1: Histidine (mouse, UniProt P20067-2 1-148, limits assumed); test: ELISA, Ab 0 µg/ml (blank)
T1 construct: Fusion protein made in E. coli from vector pGW07; also called m-Id1-His; not shown: His tag
T1 sequence (looked up): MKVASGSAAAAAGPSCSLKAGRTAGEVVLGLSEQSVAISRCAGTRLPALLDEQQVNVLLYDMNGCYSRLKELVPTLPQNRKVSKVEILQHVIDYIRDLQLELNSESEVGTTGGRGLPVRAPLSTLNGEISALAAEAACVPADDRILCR

Human Id1: Histidine [2] = target: T2, Human Id1: Histidine (human, UniProt P41134 1-155, limits assumed); test: ELISA, Ab 0 µg/ml (blank)
T2 construct: Fusion protein made in E. coli from vector pGW07; also called h-Id1: his; not shown: His tag
T2 sequence (looked up): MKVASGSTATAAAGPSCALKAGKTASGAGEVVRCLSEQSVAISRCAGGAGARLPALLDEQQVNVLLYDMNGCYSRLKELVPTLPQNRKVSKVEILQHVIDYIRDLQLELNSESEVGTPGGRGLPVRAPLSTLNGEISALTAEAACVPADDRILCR

Mouse Id3: Histidine [3] = target: T3, Mouse Id3: Histidine (mouse, UniProt P41133 1-119); test: ELISA, Ab 0 µg/ml (blank)
T3 construct: Fusion protein made in E. coli from vector pGW07; also called m-Id3: His; Mouse Id3 (coated wells); not shown: His tag
T3 sequence: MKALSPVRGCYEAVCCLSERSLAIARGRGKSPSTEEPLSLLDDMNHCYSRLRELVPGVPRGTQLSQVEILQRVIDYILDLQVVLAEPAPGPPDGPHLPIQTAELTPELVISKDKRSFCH

Human Id3: Histidine [4] = target: T4, Human Id3: Histidine (human, UniProt Q02535 1-119 at identity 1.00)); test: ELISA, Ab 0 µg/ml (blank)
T4 construct: Fusion protein made in E. coli from vector pGW07; also called h-Id3: His; Human Id3 (coated wells); not shown: His tag
T4 chain: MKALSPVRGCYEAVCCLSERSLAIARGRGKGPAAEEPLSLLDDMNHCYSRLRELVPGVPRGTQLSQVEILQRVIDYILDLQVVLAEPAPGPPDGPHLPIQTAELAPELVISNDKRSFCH

Mouse Id2: Histidine [5] = target: T5, Mouse Id2: Histidine (mouse, UniProt P41136 1-134, limits assumed); test: ELISA, Ab 0 µg/ml (blank)
T5 construct: Fusion protein made in E. coli from vector pGW07; also called m-Id2: His; not shown: His tag
T5 sequence (looked up): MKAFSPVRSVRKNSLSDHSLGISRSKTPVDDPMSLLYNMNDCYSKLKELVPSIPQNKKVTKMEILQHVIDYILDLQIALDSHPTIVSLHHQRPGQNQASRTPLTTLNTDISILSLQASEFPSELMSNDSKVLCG

Human Id2: Histidine [6] = target: T6, Human Id2: Histidine (human, UniProt Q02363 1-134, limits assumed); test: ELISA, Ab 0 µg/ml (blank)
T6 construct: Fusion protein made in E. coli from vector pGW07; also called h-Id2: His; not shown: His tag
T6 sequence (looked up): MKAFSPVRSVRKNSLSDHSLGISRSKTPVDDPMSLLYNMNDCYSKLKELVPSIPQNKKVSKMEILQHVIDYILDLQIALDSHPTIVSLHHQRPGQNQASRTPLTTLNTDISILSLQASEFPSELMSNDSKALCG

Mouse Id1: Histidine [7] = target: T1, Mouse Id1: Histidine; test: ELISA, Ab 0.250 µg/ml
Human Id1: Histidine [8] = target: T2, Human Id1: Histidine; test: ELISA, Ab 0.250 µg/ml
Mouse Id3: Histidine [9] = target: T3, Mouse Id3: Histidine; test: ELISA, Ab 0.250 µg/ml
Human Id3: Histidine [10] = target: T4, Human Id3: Histidine; test: ELISA, Ab 0.250 µg/ml
Mouse Id2: Histidine [11] = target: T5, Mouse Id2: Histidine; test: ELISA, Ab 0.250 µg/ml
Human Id2: Histidine [12] = target: T6, Human Id2: Histidine; test: ELISA, Ab 0.250 µg/ml
Mouse Id1: Histidine [13] = target: T1, Mouse Id1: Histidine; test: ELISA, Ab 0.010 µg/ml
Human Id3: Histidine [14] = target: T4, Human Id3: Histidine; test: ELISA, Ab 0.010 µg/ml
Mouse Id2: Histidine [15] = target: T5, Mouse Id2: Histidine; test: ELISA, Ab 0.010 µg/ml
Human Id2: Histidine [16] = target: T6, Human Id2: Histidine; test: ELISA, Ab 0.010 µg/ml
Mouse Id1: Histidine [17] = target: T1, Mouse Id1: Histidine; test: ELISA, Ab 0.005 µg/ml
Human Id1: Histidine [18] = target: T2, Human Id1: Histidine; test: ELISA, Ab 0.005 µg/ml
Mouse Id3: Histidine [19] = target: T3, Mouse Id3: Histidine; test: ELISA, Ab 0.005 µg/ml
Human Id3: Histidine [20] = target: T4, Human Id3: Histidine; test: ELISA, Ab 0.005 µg/ml
Mouse Id2: Histidine [21] = target: T5, Mouse Id2: Histidine; test: ELISA, Ab 0.005 µg/ml
Human Id2: Histidine [22] = target: T6, Human Id2: Histidine; test: ELISA, Ab 0.005 µg/ml
Mouse Id3: Histidine [23] = target: T3, Mouse Id3: Histidine; test: ELISA, Ab 0.100 µg/ml

B1: rabbit monoclonal anti-mouse/human Id3, clone #BCH-4/#6-1 (antibody, V domains shown)
VH: QSVEESGGRLVTPGTPLTLTCTASGFSLSNVYIHWVRQAPGKGLEWIGYISDGDTARYATWAKGRFTISKTSSTTVNLKMTSLTTEDTATYFCARQGFNIWGPGTLVTVSL
VL: AVLTQTPSPVSAAVGGTVSISCQSSQSVWNNNWLSWFQQKPGQPPKLLIYETSKLESGVPSRFKGSGSGTQFTLTISDVQCDDAATYYCLGGYWTTSDNNVFGGGTEVVVK
notes: Rabbit IgG from a rabbit hybridoma; also called m/h Id3 MoAb 6-1
- A450 (Mouse Id1: Histidine [1]): 0.061 A450
- A450 (Human Id1: Histidine [2]): 0.058 A450
- A450 (Mouse Id3: Histidine [3]): 0.048 A450
- A450 (Human Id3: Histidine [4]): 0.047 A450
- A450 (Mouse Id2: Histidine [5]): 0.058 A450
- A450 (Human Id2: Histidine [6]): 0.064 A450
- A450 (Mouse Id1: Histidine [7]): 0.058 A450
- A450 (Human Id1: Histidine [8]): 0.061 A450
- A450 (Mouse Id3: Histidine [9]): 3.13 A450
- A450 (Human Id3: Histidine [10]): 2.74 A450
- A450 (Mouse Id2: Histidine [11]): 0.071 A450
- A450 (Human Id2: Histidine [12]): 0.071 A450
- A450 (Mouse Id1: Histidine [13]): 0.079 A450
- A450 (Human Id3: Histidine [14]): 0.48 A450
- A450 (Mouse Id2: Histidine [15]): 0.071 A450
- A450 (Human Id2: Histidine [16]): 0.071 A450
- A450 (Mouse Id1: Histidine [17]): 0.076 A450
- A450 (Human Id1: Histidine [18]): 0.075 A450
- A450 (Mouse Id3: Histidine [19]): 0.295 A450
- A450 (Human Id3: Histidine [20]): 0.248 A450
- A450 (Mouse Id2: Histidine [21]): 0.073 A450
- A450 (Human Id2: Histidine [22]): 0.076 A450
- A450 (Mouse Id3: Histidine [23]): 2.42 A450
